Like-named read-outs stand apart in the source and are kept apart here. Where no end group is shown, it is not given here. [ ]: non-standard residue; d: D form. Pro(1-NpCH2O) = Pro(4-R13), R13 = 1-NpCH2O; Pro(2-NpCH2O) = Pro(4-R13), R13 = 2-NpCH2O; P1(R14 Et, 1R,2R) = not defined here; P1(R14 Et, 1S,2S) = not defined here; Pro(4-OBn) = Pro(4-R13), R13 = OBn; Pro(O-Bn) = Pro(4-R13), R13 = O-Bn; Pro(OBn) = Pro(4-R13), R13 = OBn; Chg = N[C@H](C(=O)O)C1CCCCC1; Acca = not defined here; Nva = CCC[C@H](N)C(=O)O; Ac3c = NC1(C(=O)O)CC1
B1: Compound 215 (Table 2): Ac-Asp-D-Glu-Chg-Val-Pro(1-NpCH2O)-Acca (peptide)
peptide: Ac-D[dE][Chg]V[Pro(1-NpCH2O)][Acca]
modifications: reading uncertain
B2: Compound 257 (Table 2): Ac-Chg-Val-Pro(R13)-Acca, R13 drawn (peptide)
peptide: Ac-[Chg]VP[Ac3c]
modifications: not fully specified (residue 3); printed as Ac-Chg-Val-Pro(R13)-Acca
B3: Compound 236 (Table 2): Ac-Gly-thioxo-Ile-Val-Pro(1-NpCH2O)-Nva (peptide)
peptide: Ac-GIVP[Nva]
modifications: not fully specified (residue 4); also: Ile2 thioxo (L-thionoisoleucine), thioamide
B4: Compound 517 (Table 5): Ac-Asp-D-Glu-Ile-Val-Pro(OBn)-P1(R14 Et; 1R, 2R) (peptide)
peptide: Ac-D[dE]IV[Pro(OBn)][(1R,2R)‑1‑amino‑2‑ethylcyclopropanecarboxylic acid]
B5: Compound 202 (Table 2): Ac-Asp-D-Val-Ile-Val-Pro(O-Bn)-Nva (peptide)
peptide: Ac-D[dV]IV[Pro(O-Bn)][Nva]
B6: Compound 636 (Table 6): P6 Asp, P5 D-Glu, P4 Ile, P3 Val, R13 O-Bn, R14 vinyl (peptide)
peptide: D[dE]IV[Pro(O-Bn)][1‑amino‑2‑vinylcyclopropanecarboxylic acid]
modifications: not fully specified; also: further groups not given here
B7: Compound 227 (Table 2): Ac-Chg-Val-Pro(1-NpCH2O)-Acca (peptide)
peptide: Ac-[Chg]VP[Ac3c]
modifications: not fully specified (residue 3); printed as Ac-Chg-Val-Pro(1-NpCH2O)-Acca
B8: Compound 228 (Table 2): Ac-Chg-Val-Pro(O-Bn)-P1, P1 drawn (peptide)
peptide: Ac-[Chg]VPX
modifications: not fully specified (residue 3); printed as Ac-Chg-Val-Pro(O-Bn)-P1
B9: Compound 506 (Table 5): Ac-Chg-Chg-Pro(1-NpCH2O)-P1(R14 Et; 1S, 2S) (peptide)
peptide: Ac-[Chg][Chg]P[P1(R14 Et, 1S,2S)]
modifications: not fully specified (residue 3); reading uncertain
B10: Compound 1001 (Table 10): Ac-Asp-D-Glu-Ile-Val-Pro(OBn)-P1(R14 Et; 1S, 2S)-NH-(S)-CHMePh (peptide)
peptide: Ac-D[dE]IV[Pro(OBn)][(1S,2S)‑1‑amino‑2‑ethylcyclopropanecarboxylic acid]-{NH‑(S)‑CHMePh}
B11: Compound 213 (Table 2): Ac-Asp-D-Glu-Ile-Val-Pro(2-NpCH2O)-Nva (peptide)
peptide: Ac-D[dE]IV[Pro(2-NpCH2O)][Nva]
B12: Compound 132 (Table 1): Ac-Asp-D-Glu-Chg-Glu-Glu-Acca (peptide)
peptide: Ac-D[dE][Chg]EE[Acca]
modifications: reading uncertain
B13: Compound 211 (Table 2): Ac-Asp-D-Glu-Chg-Val-Pro(O-Bn)-Nva (peptide)
peptide: Ac-D[dE][Chg]V[Pro(O-Bn)][Nva]
B14: Compound 513 (Table 5): Ac-Chg-Val-Pro(1-NpCH2O)-P1(R14 Et; 1R, 2R) (peptide)
peptide: Ac-[Chg]VP[P1(R14 Et, 1R,2R)]
modifications: not fully specified (residue 3); reading uncertain
B15: Compound 128 (Table 1): Ac-Asp-D-Glu-Ile-Val-Pro-Nva (peptide)
peptide: Ac-D[dE]IVP[Nva]
B16: Compound 218 (Table 2): Ac-Asp-D-Glu-Ile-Val-Pro(O-Bn)-Nva (peptide)
peptide: Ac-D[dE]IV[Pro(4-OBn)][Nva]
B17: Compound 1002 (Table 10): Ac-Asp-D-Glu-Ile-Val-Pro(OBn)-P1(R14 Et; 1S, 2S)-NH-(R)-CHMePh (peptide)
peptide: Ac-D[dE]IV[Pro(OBn)][(1S,2S)‑1‑amino‑2‑ethylcyclopropanecarboxylic acid]-{NH‑(R)‑CHMePh}

What was measured:
[1] = target: recombinant NS3 protease with the NS4A peptide cofactor … (molar ratio enzyme:cofactor 1:100) (hepatitis C virus genotype 1b); test: cell-based or functional assay
[2] = target: recombinant NS3 protease with the NS4A peptide cofactor … (molar ratio enzyme:cofactor 1:100) (hepatitis C virus genotype 1b); test: cell-based or functional assay; remark: listed apart in the source

Binder | IC50 [1] [nM] | IC50 [2] [nM] | fold potency against the corresponding 1S,2S isomer (compound 514) [2] [fold]
B1 | 14 |  | 
B2 |  | 2200 | 
B3 | 4000 |  | 
B4 | 75 |  | 
B5 | 930 |  | 
B6 | 470 |  | 
B7 |  | 3000 | 
B8 |  | 35000 | 
B9 |  | 4850 | 
B10 | 2000 |  | 
B11 | 36 |  | 
B12 | 36000 |  | 
B13 | 120 |  | 
B14 |  | 1660 | 25
B15 | 7400 |  | 
B16 | 490 |  | 
B17 | 49000 |  | 
